Reference: article doi:10.1101/2020.05.04.070177, “Mechanistic insights into RNA binding and RNA-regulated RIG-I ubiquitination by TRIM25” (bioRxiv, 2020)

Key:
[1] = biological target: TRIM25 PRY/SPRY (UniProt Q14258 439-630); test: ITC; ITC and filter binding: 20 mM MES pH 6.5, 75 mM NaCl, 0.5 mM TCEP (ITC 20 C, filter binding on ice); NMR: 20 mM Na phosphate pH 6.5, 150 mM NaCl, 2 mM TCEP, 293 K; settings: protein: recombinant; tags: His-Trx (removed); chain copies: 3; hairpin
[2] = biological target: TRIM25 CC (UniProt Q14258 189-379); test: as above; settings: protein: recombinant; tags: His-Trx (removed); chain copies: 2; hairpin
Chain of TRIM25 CC (Q14258 189-379): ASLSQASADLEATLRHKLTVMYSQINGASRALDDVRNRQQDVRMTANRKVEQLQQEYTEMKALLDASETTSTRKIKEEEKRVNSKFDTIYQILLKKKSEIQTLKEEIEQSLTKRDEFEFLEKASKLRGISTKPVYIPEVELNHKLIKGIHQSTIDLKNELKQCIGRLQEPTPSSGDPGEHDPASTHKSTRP

[3] = biological target: T1, TRIM25 CC-PRY/SPRY (UniProt Q14258 189-630); test: filter binding; ITC and filter binding: 20 mM MES pH 6.5, 75 mM NaCl, 0.5 mM TCEP (ITC 20 C, filter binding on ice); NMR: 20 mM Na phosphate pH 6.5, 150 mM NaCl, 2 mM TCEP, 293 K; settings: protein: recombinant; tags: His-Trx (removed); chain copies: 2; hairpin
T1 sequence (Q14258 189-630): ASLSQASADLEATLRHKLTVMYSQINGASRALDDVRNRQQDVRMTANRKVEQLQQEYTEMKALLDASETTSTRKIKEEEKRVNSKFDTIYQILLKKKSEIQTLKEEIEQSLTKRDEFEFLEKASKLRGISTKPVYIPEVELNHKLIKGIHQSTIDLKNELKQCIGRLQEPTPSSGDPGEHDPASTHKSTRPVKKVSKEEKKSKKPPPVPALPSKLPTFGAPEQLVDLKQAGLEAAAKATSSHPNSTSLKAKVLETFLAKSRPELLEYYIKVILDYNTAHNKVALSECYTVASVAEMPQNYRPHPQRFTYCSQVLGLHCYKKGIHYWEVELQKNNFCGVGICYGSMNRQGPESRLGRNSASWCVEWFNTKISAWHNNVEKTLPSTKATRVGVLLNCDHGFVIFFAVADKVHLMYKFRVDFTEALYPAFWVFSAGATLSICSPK

[4] = biological target: T2, TRIM25 CC-PRY/SPRY K283A/K285A (UniProt Q14258 189-630, K283A;K285A); test: ITC; second fitted site; ITC and filter binding: 20 mM MES pH 6.5, 75 mM NaCl, 0.5 mM TCEP (ITC 20 C, filter binding on ice); NMR: 20 mM Na phosphate pH 6.5, 150 mM NaCl, 2 mM TCEP, 293 K; settings: protein: recombinant; tags: His-Trx (removed); chain copies: 2; hairpin
T2 sequence (Q14258 189-630 K283A/K285A): as the sequence (Q14258 189-630) above, with K95A, K97A counted along it

[5] = biological target: T3, TRIM25 CC-PRY/SPRY K602E (UniProt Q14258 189-630, K602E); test: as above; settings: protein: recombinant; tags: His-Trx (removed); chain copies: 2; hairpin
T3 sequence (Q14258 189-630 K602E): as the sequence (Q14258 189-630) above, with K414E counted along it

[6] = biological target: T4, TRIM25 CC-PRY/SPRY Y463S/Y476S (UniProt Q14258 189-630, Y463S;Y476S); test: as above; settings: protein: recombinant; tags: His-Trx (removed); chain copies: 2; hairpin
T4 sequence (Q14258 189-630 Y463S/Y476S): as the sequence (Q14258 189-630) above, with Y275S, Y288S counted along it

[7] = biological target: T5, TRIM25 CC-PRY/SPRY H505E/K508E (UniProt Q14258 189-630, H505E;K508E); test: as above; settings: protein: recombinant; tags: His-Trx (removed); chain copies: 2; hairpin
T5 sequence (Q14258 189-630 H505E/K508E): as the sequence (Q14258 189-630) above, with H317E, K320E counted along it

[8] = biological target: T6, TRIM25 CC-PRY/SPRY triple mutant (UniProt Q14258 189-630, H505E;K508E;K602E); test: as above; settings: protein: recombinant; tags: His-Trx (removed); chain copies: 2; hairpin
T6 sequence (Q14258 189-630 H505E/K508E/K602E): as the sequence (Q14258 189-630) above, with H317E, K320E, K414E counted along it

[9] = biological target: T7, TRIM25 CC-PRY/SPRY penta-mutant (UniProt Q14258 189-630, K283A;K285A;H505E;K508E;K602E); test: as above; settings: protein: recombinant; tags: His-Trx (removed); chain copies: 2; hairpin
T7 sequence (Q14258 189-630 K283A/K285A/H505E/K508E/K602E): as the sequence (Q14258 189-630) above, with K95A, K97A, H317E, K320E, K414E counted along it

[10] = biological target: T1, TRIM25 CC-PRY/SPRY; test: ITC; highest affinity site; ITC and filter binding: 20 mM MES pH 6.5, 75 mM NaCl, 0.5 mM TCEP (ITC 20 C, filter binding on ice); NMR: 20 mM Na phosphate pH 6.5, 150 mM NaCl, 2 mM TCEP, 293 K; settings: protein: recombinant; tags: His-Trx (removed); chain copies: 2; hairpin
[11] = biological target: T2, TRIM25 CC-PRY/SPRY K283A/K285A; test: ITC; first of two fitted sites; ITC and filter binding: 20 mM MES pH 6.5, 75 mM NaCl, 0.5 mM TCEP (ITC 20 C, filter binding on ice); NMR: 20 mM Na phosphate pH 6.5, 150 mM NaCl, 2 mM TCEP, 293 K; settings: protein: recombinant; tags: His-Trx (removed); chain copies: 2; hairpin
[12] = biological target: T3, TRIM25 CC-PRY/SPRY K602E; test: as above; settings: protein: recombinant; tags: His-Trx (removed); chain copies: 2; hairpin
[13] = biological target: T4, TRIM25 CC-PRY/SPRY Y463S/Y476S; test: as above; settings: protein: recombinant; tags: His-Trx (removed); chain copies: 2; hairpin
[14] = biological target: T5, TRIM25 CC-PRY/SPRY H505E/K508E; test: as above; settings: protein: recombinant; tags: His-Trx (removed); chain copies: 2; hairpin
[15] = biological target: T6, TRIM25 CC-PRY/SPRY triple mutant; test: as above; settings: protein: recombinant; tags: His-Trx (removed); chain copies: 2; hairpin
[16] = biological target: T7, TRIM25 CC-PRY/SPRY penta-mutant; test: as above; settings: protein: recombinant; tags: His-Trx (removed); chain copies: 2; hairpin

Chain of TRIM25 PRY/SPRY (Q14258 439-630): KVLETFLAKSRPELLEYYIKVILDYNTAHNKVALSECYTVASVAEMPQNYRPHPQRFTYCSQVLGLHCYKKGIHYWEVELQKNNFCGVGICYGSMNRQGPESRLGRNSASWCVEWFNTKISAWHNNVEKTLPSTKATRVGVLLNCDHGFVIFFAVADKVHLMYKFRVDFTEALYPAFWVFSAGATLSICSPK

B1: pre-let-7a-1@2 (structured_RNA)
RNA: GUAUAGUUUAAAAGGAGAUAACUAUAC
Which results are given for B1?
Kd [1]: 5 ± 1.2 µM; Kd [2]: 8.1 ± 3.1 µM; Kd [3]: 0.0102 ± 0.0038 µM; Kd [4]: 16.6 ± 2.1 µM; Kd [5]: 2.54 ± 0.12 µM; Kd [6]: 17 ± 11 µM; Kd [7]: 4.19 ± 0.5 µM; Kd [8]: 132 ± 24 µM; Kd [9]: 124 ± 28 µM; Kd [10]: 0.072 ± 0.033 µM; Kd [11]: 0.606 ± 0.124 µM; Kd [12]: 0.196 ± 0.022 µM; Kd [13]: 0.252 ± 0.061 µM; Kd [14]: 0.484 ± 0.048 µM; Kd [15]: 0.79 ± 0.16 µM; Kd [16]: 1.32 ± 0.37 µM
